Square brackets hold non-standard residues; d marks the D form. Primed or numbered codes have the meaning given here. Side chains are listed from the residue outwards. Ends that are not written are not given here. * marks the point of attachment. DOTA = O=C(O)CN1CCN(CC(=O)O)CCN(CC(=O)*)CCN(CC(=O)O)CC1; Biotin = O=C1N[C@H]2[C@H](CS[C@H]2CCCCC(=O)*)N1; Butanoyl(4-(4-I-phenyl)) = O=C(CCCc1ccc(I)cc1)*; Butanoyl(4-(4-MePh)) = Cc1ccc(CCCC(=O)*)cc1; FB = fluorobenzaldehyde oxime; Folate = pteroic acid on Glu; PEG3′ = PEG3 spacer; PEG7′ = PEG7 spacer; AO = aminooxy
What was measured:
human plasma proteins [1] = assay: plasma protein binding, dialysis 4 h at 37 C, 2 µM, LC-MS/MS
[2] = molecular target: mouse plasma proteins (CD-1 mouse); assay: as above
human plasma proteins [3] = assay: plasma protein binding; measured on the FB form
[4] = molecular target: mouse plasma proteins (CD-1 mouse); assay: plasma protein binding; measured on the FB form
[5] = molecular target: FOLR1 human recombinant protein (human) (UniProt P15328); assay: ELISA on FOLR1, linker screen
Sequence of FOLR1 human recombinant protein (human) (P15328 25-233 limits assumed): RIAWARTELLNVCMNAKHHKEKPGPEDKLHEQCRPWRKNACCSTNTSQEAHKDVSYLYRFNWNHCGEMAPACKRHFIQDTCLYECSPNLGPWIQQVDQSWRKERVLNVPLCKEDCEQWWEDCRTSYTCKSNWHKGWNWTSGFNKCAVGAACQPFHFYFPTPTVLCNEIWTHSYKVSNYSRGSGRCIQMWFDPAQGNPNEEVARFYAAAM

[6] = molecular target: FOLR1 human recombinant protein (human) (UniProt P15328); assay: ELISA on FOLR1

| Binder | Plasma % Bound (human plasma proteins [1]) [%] | Plasma % Bound [2] [%] | further results |
| --- | --- | --- | --- |
| folate-[dH][dS][dH][dT][dA][PEG3′]K(DOTA)-OH (triazole (positions not given here); not fully specified; printed as folate-hshta-PEG3-Lys(DOTA); numbers in words are those of the source; also: triazole macrocycle via Pra and Az4, places not given here) [Fol-hshta-PEG3-Lys(DOTA) (compound #1189)] | 46 | 29.5 |  |
| folate-[dH][dS][dH][dT][dA]GFK(AO) (triazole (positions not given here); not fully specified; printed as Fol-hshta-Gly-Phe-Lys(AO); also: triazole macrocycle via Pra and Az4, places not given here) [Fol-hshta-Gly-Phe-Lys(AO) (compound #3303)] |  |  | Plasma % Bound (human plasma proteins [3]): 81%; Plasma % Bound [4]: 75.5% |
| [dH][dS][dH][dT][dA]K(Butanoyl(4-(4-I-phenyl)))GFK(DOTA) (triazole (positions not given here); not fully specified (N-terminus); also: triazole macrocycle via Pra and Az4, places not given here) [Folate-hshta-Lys(IPBA)-Gly-Phe-Lys(DOTA) (compound #1307)] | 99.5 | 99.6 |  |
| {folate-PEG7′}-[dH][dS][dH][dT][dA] (triazole (positions not given here); also: triazole macrocycle via Pra and Az4, places not given here, biotin label, site not given here) [Folate-PEG7-hshta] |  |  | EC50 [5]: 1 nM |
| folate-[dH][dS][dH][dT][dA][PEG3′]K([AO-FB]) (triazole (positions not given here); numbers in words are those of the source; also: triazole macrocycle via Pra and Az4, places not given here) [Fol-hshta-PEG3-Lys(FB) (compound #2)] | 43 | 20.2 | Plasma % Bound (human plasma proteins [3]): 43%; Plasma % Bound [4]: 20.2% |
| [dH][dS][dH][dT][dA][PEG3′]K(Butanoyl(4-(4-MePh)))K(DOTA)-OH (triazole (positions not given here); not fully specified (N-terminus); printed as folate-hshta-PEG3-Lys(MPBA)-Lys(DOTA); numbers in words are those of the source; also: triazole macrocycle via Pra and Az4, places not given here) [Folate-hshta-PEG3-Lys(MPBA)-Lys(DOTA) (compound #2809)] | 83.3 | 92.1 |  |
| folate-[dH][dS][dH][dT][dA]K(Butanoyl(4-(4-I-phenyl)))MVK(DOTA)-OH (triazole (positions not given here); not fully specified; also: triazole macrocycle via Pra and Az4, places not given here) [Folate-hshta-Lys(IPBA)-M-V-Lys(DOTA) (compound #1306)] | 97.3 | 97.1 |  |
| Biotin-[dK][dY][dE][dE][dT] (triazole (positions not given here); also: folate joined via PEG linker and triazole (Tz), site not placed, triazole macrocycle via Pra and Az4 flanking kyeet, not placed in chain) [folate-kyeet Tz heterobiligand] |  |  | EC50 [6]: 0.149 nM |
| Biotin-[dH][dS][dH][dT][dA] (triazole (positions not given here); also: triazole macrocycle via Pra and Az4, places not given here, folate joined through PEG linker and triazole, site not given here) [folate-hshta Tz heterobiligand] |  |  | EC50 [6]: 0.107 nM |
| [dD][dE][dR][dY][dT] (triazole (positions not given here); also: triazole macrocycle via Pra and Az4, places not given here, folate conjugated, linker and site not given here) [Folate-deryt heterobiligand (construct not specified)] |  |  | EC50 [5]: 0.28 nM |
| [dD][dE][dR][dY][dT] (triazole (positions not given here); also: flanked by Pra and Az4 joined by 1,2,3-triazole, sides not given here) [deryt (SEQ ID NO:20) PCC alone] |  |  | EC50 [6]: 10000 nM |
| folate-[dH][dS][dH][dT][dA][PEG3′]GFK(DOTA) (triazole (positions not given here); numbers in words are those of the source; also: triazole macrocycle via Pra and Az4, places not given here) [Fol-hshta-PEG3-Gly-Phe-Lys(DOTA) (compound #6307)] | 41.3 | 40.6 |  |
| [dH][dS][dH][dT][dA]K(Butanoyl(4-(4-MePh)))GFK(DOTA)-OH (triazole (positions not given here); not fully specified (N-terminus); also: triazole macrocycle via Pra and Az4, places not given here) [Folate-hshta-Lys(MPBA)-Gly-Phe-Lys(DOTA) (compound #6305)] | 98.3 | 96.3 |  |

More lines, main results first:

| Plasma % Bound (human plasma proteins [1]) [%] | Plasma % Bound [2] [%] | Binder | further results |
| --- | --- | --- | --- |
| 40.3 | 40.9 | Folate-[dH][dS][dH][dT][dA]GFK(DOTA)-OH (not fully specified (bridges); printed as folate-hshta-Gly-Phe-Lys(DOTA); also: triazole macrocycle closed by Pra and Lys(N3)/Az4 flanking hshta, not in the given chain) [Folate-hshta-G-F-K(DOTA)-OH (Indi 7327, compound #7327)] |  |
| 94.9 | 96.5 | [dH][dS][dH][dT][dA]KGFK([PEG3′-DOTA]) (triazole (positions not given here); not fully specified (residue 6, N-terminus); also: triazole macrocycle via Pra and Az4, places not given here) [Fol-hshta-Lys(4-MPBA)-Gly-Phe-Lys(PEG3-DOTA) (compound #3302)] |  |
